Assay results: the supplement of paper PMC11246515
± gives the standard deviation of the averaged measurements.

Assay: total protein half-life in vivo (active degradation + dilution); higher = more stable protein
[1] = E. coli NCM3722 delta-clpP delta-lon delta-hslV, growth: N-lim chemostat, doubling time 6 h
[2] = E. coli NCM3722 delta-clpP, growth: N-lim chemostat, doubling time 6 h
[3] = E. coli NCM3722 delta-hslV, growth: N-lim chemostat, doubling time 6 h
[4] = E. coli NCM3722 delta-lon, growth: N-lim chemostat, doubling time 6 h
[5] = E. coli NCM3722 delta-smpB, growth: N-lim chemostat, doubling time 6 h
[6] = wild type E. coli NCM3722, growth: C-lim chemostat, doubling time 3 h
[7] = wild type E. coli NCM3722, growth: C-lim chemostat, doubling time 6 h
[8] = wild type E. coli NCM3722, growth: C-lim chemostat, doubling time 12 h
[9] = wild type E. coli NCM3722, growth: N-lim chemostat, doubling time 6 h
[10] = wild type E. coli NCM3722, growth: N-lim chemostat, doubling time 12 h
[11] = wild type E. coli NCM3722, growth: P-lim chemostat, doubling time 6 h
[12] = wild type E. coli NCM3722, growth: P-lim chemostat, doubling time 12 h

Sequence | total protein half-life in vivo [1] [h] | total protein half-life in vivo [2] [h] | total protein half-life in vivo [3] [h] | total protein half-life in vivo [4] [h] | total protein half-life in vivo [5] [h] | total protein half-life in vivo [6] [h] | total protein half-life in vivo [7] [h] | total protein half-life in vivo [8] [h] | total protein half-life in vivo [9] [h] | total protein half-life in vivo [10] [h] | total protein half-life in vivo [11] [h] | total protein half-life in vivo [12] [h]
MQQRRPVRRALLSVSDKAGIVEFAQALSARGVELLSTGGTARLLAEKGLPVTEVSDYTGFPEMMDGRVKTLHPKVHGGILGRRGQDDAIMEEHQIQPIDMVVVNLYPFAQTVAREGCSLEDAVENIDIGGPTMVRSAAKNHKDVAIVVKSSDYDAIIKEMDDNEGSLTLATRFDLAIKAFEHTAAYDSMIANYFGSMVPAYHGESKEAAGRFPRTLNLNFIKKLDMRYGENSHQQAAFYIEENVKEASVATATQVQGKALSYNNIADTDAALECVKEFAEPACVIVKHANPCGVAIGNSILDAYDRAYKTDPTSAFGGIIAFNRELDAETAQAIISRQFVEVIIAPSASEEALKITAAKQNVRVLTCGQWGERVPGLDFKRVNGGLLVQDRDLGMVGAEELRVVTKRQPSEQELRDALFCWKVAKFVKSNAIVYAKNNMTIGIGAGQMSRVYSAKIAGIKAADEGLEVKGSSMASDAFFPFRDGIDAAAAAGVTCVIQPGGSIRDDEVIAAADEHGIAMLFTDMRHFRH | 5.11 ± 0.42 | 4.51 ± 0.51 | 4.73 ± 0.56 | 4.99 ± 0.032 | 4.41 ± 0.28 | 3.19 ± 0.3 | 5.88 ± 0.38 | 9.3 ± 0.86 | 4.36 ± 0.22 | 6.9 ± 0.074 | 5.961 ± 0.037 | 11.9 ± 0.6
MQRARCYLIGETAVVLELEPPVTLASQKRIWRLAQRLVDMPNVVEAIPGMNNITVILRNPESLALDAIERLQRWWEESEALEPESRFIEIPVVYGGAGGPDLAVVAAHCGLSEKQVVELHSSVEYVVWFLGFQPGFPYLGSLPEQLHTPRRAEPRLLVPAGSVGIGGPQTGVYPLATPGGWQLIGHTSLSLFDPARDEPILLRPGDSVRFVPQKEGVC [P0AAV4] | 5.48 ± 0.23 | 5.44 ± 0.087 | 5.73 ± 0.79 | 7.2 ± 0.64 | 4.972 ± 0.042 | 3.51 ± 0.27 | 6.26 ± 0.1 | 11.3 ± 0.43 | 5.41 ± 0.97 | 11.3 ± 0.39 | 6.04 ± 0.51 | –
MQRETVWLVEDEQGIADTLVYMLQQEGFAVEVFERGLPVLDKARKQVPDVMILDVGLPDISGFELCRQLLALHPALPVLFLTARSEEVDRLLGLEIGADDYVAKPFSPREVCARVRTLLRRVKKFSTPSPVIRIGHFELNEPAAQISWFDTPLALTRYEFLLLKTLLKSPGRVWSRQQLMDSVWEDAQDTYDRTVDTHIKTLRAKLRAINPDLSPINTHRGMGYSLRGL | 5.69 ± 1.5 | 4.02 ± 0.41 | 3.55 | 4.49 ± 0.45 | 3.92 | 2.74 ± 0.18 | 4.86 ± 0.057 | 11.5 ± 3.6 | 3.99 | 6.73 ± 0.16 | 4.04 | 7.89 ± 0.58
MQSERIYLVWAHPRHDSLTAHIADAIHQRAMERKIQVTELDLYRRNFNPVMTPEDEPDWKNMDKRYSPEVHQLYSELLEHDTLVVVFPLWWYSFPAMLKGYIDRVWNNGLAYGDGHKLPFNKVRWVALVGGDKESFVQMGWEKNISDYLKNMCSYLGIEDADVTFLCNTVVFDGEELHASYYQSLLSQVRDMVDAL | – | 4.52 ± 0.47 | 4 | 4.84 ± 0.22 | 4.07 ± 0.28 | 2.98 ± 0.16 | 6.87 ± 1.5 | 9.75 ± 0.92 | 4.62 ± 0.12 | 7.48 ± 1 | 5.643 ± 0.052 | 11.5 ± 1.1
MQSWYLLYCKRGQLQRAQEHLERQAVNCLAPMITLEKIVRGKRTAVSEPLFPNYLFVEFDPEVIHTTTINATRGVSHFVRFGASPAIVPSAVIHQLSVYKPKDIVDPATPYPGDKVIITEGAFEGFQAIFTEPDGEARSMLLLNLINKEIKHSVKNTEFRKL [P0AFW0] | 4.25 ± 0.76 | 3.41 ± 0.17 | 3.23 | 3.931 ± 0.015 | 2.52 ± 0.22 | 3.08 ± 0.73 | 5.24 ± 1.7 | 6.64 ± 1.1 | 3.18 | 5.43 ± 1.4 | 4.35 ± 0.79 | 7.71
